Laboratory results reported in publication PMC9504416, “Functional Characterization of an Arabidopsis Profilin Protein as a Molecular Chaperone under Heat Shock Stress” (Molecules, 2022).

Target: the molecule itself
Test: native gel or EMSA; 10% native PAGE with silver staining; concentration-dependent aliquots of recombinant protein, incubated at 25 °C for 30 min and centrifuged at 13,000 x g for 15 min

B1: Arabidopsis thaliana profilin-2 (AtPFN2), recombinant (natural protein, UniProt Q42418 1-131, looked up)
chain: MSWQSYVDDHLMCEVEGNHLTHAAIFGQDGSVWAQSSAFPQLKPAEIAGINKDFEEAGHLAPTGLFLGGEKYMVVQGEAGAVIRGKKGPGGVTIKKTTQALVFGIYDEPMTGGQCNLVVERLGDYLIESGL
notes: Profilin-2 (AtPFN2) of Arabidopsis thaliana, amplified by PCR from an A. thaliana cDNA library; single band of 14 kDa on SDS-PAGE; Homo-oligomer of various sizes; The vector pET28(a) probably adds the His tag; no removal of the tag is told; also called Arabidopsis PFN2; source: E. coli BL21 (DE3), pET28(a), purified (HisPur cobalt resin, imidazole elution; SEC)
binding result: binds
